Columns and labels:
[1] = biological target: …-HLA-A*02:01 single-chain trimer displayed on yeast (human); assay: flow cytometry histogram of yeast displaying … with HLA-A*02:01, '+' (MA2.1 then secondary antibody); the row '-' gives 6.825 in the same gate
[2] = biological target: …-HLA-A*02:01 single-chain trimer displayed on yeast (human); assay: flow cytometry histogram of yeast displaying … with HLA-A*02:01, '+' (MA2.1 then secondary antibody); the row '-' gives 7.270 in the same gate
[3] = biological target: …-HLA-A*02:01 single-chain trimer displayed on yeast (human); assay: flow cytometry histogram of yeast displaying … with HLA-A*02:01, '+' (MA2.1 then secondary antibody); the row '-' gives 6.542 in the same gate
[4] = biological target: …-HLA-A*02:01 single-chain trimer displayed on yeast (human); assay: flow cytometry histogram of yeast displaying … with HLA-A*02:01, '+' (MA2.1 then secondary antibody); the row '-' gives 6.578 in the same gate
[5] = biological target: …-HLA-A*02:01 single-chain trimer displayed on yeast (human); assay: flow cytometry histogram of yeast displaying … with HLA-A*02:01, '+' (MA2.1 then secondary antibody); the row '-' gives 9.655 in the same gate
[6] = biological target: …-HLA-A*02:01 single-chain trimer displayed on yeast (human); assay: flow cytometry histogram of yeast displaying … with HLA-A*02:01, '+' (MA2.1 then secondary antibody); the row '-' gives 5.574 in the same gate
[7] = biological target: …-HLA-A*02:01 single-chain trimer displayed on yeast (human); assay: flow cytometry of yeast displaying [..]-HLA-A*02:01, 400 nM DMF5 TCR tetramerized on SA-647 against anti-HA; the panel with SA-647 alone gives 10.80 in the same quadrant

Row | percent of yeast in the MA2.1-positive gate [1] | percent of yeast in the MA2.1-positive gate [2] | percent of yeast in the MA2.1-positive gate [3] | percent of yeast in the MA2.1-positive gate [4] | percent of yeast in the MA2.1-positive gate [5] | percent of yeast in the MA2.1-positive gate [6] | percent of yeast SA-647+ HA-488+ (upper right quadrant) [7] | Substance
1 | 74.2 | 68.6 | 55.5 | 74.2 | 73.7 | 69 | – | MA2.1 antibody
2 | – | – | – | – | – | – | 55.8 | DMF5 TCR, soluble, multimerized on streptavidin

From US20250042969A1, “ANTIGEN DISCOVERY FOR T CELL RECEPTORS ISOLATED FROM PATIENT TUMORS RECOGNIZING WILD-TYPE ANTIGENS AND POTENT PEPTIDE MIMOTOPES” (The Board of Trustees of the Leland Stanford Junior …, priority 2017, published 2025)
